# Assay results taken from patent US20100305307A1 (published 2010).
# B1: antibody secreted by the hybridoma E1.1 (antibody, V domains shown)
# VH: VSGGSINSGDYYWSWIRQHPGKGLDCIGYIYYSGSTYYNPSLKSRVTISVDTSKNQFFLKLTSVTAADTAVYYCARSTVVNPGWFDPWGQGTLVTVSS
# VL: TITCQASQDINNYLNWFQQKPGKAPKVLIHDASNLETGGPSRFSGSGSGTDFTFTISGLQPEDIATYYCQQYESLPLTFGGGTKVEIKR
# notes: Fully human IgG2 heavy chain with human kappa light chain; they were cloned by PCR between V-region and constant-region primers, so they are probably not full chains
# Assays:
# [1] = target: human EGF-r expressed on the surface of human carcinoma cells (A431, SW948) (human) (UniProt P00533); assay: cell-based or functional assay
# [2] = target: soluble EGF-r purified from A431 cell membranes (Sigma, E-3641) (human, UniProt P00533 25-1210, limits assumed); assay: BIAcore, solid phase, antigen immobilized on the sensor surface
# Description: Determination of affinity constants of fully human Mabs by BIAcore: Affinity measurement of purified human monoclonal antibodies, Fab fragments, or hybridoma supernatants by plasmon resonance was carried out using the BIAcore 2000 instrument, using general procedures outlined by the manufacturers.
# Based upon the general procedures outlined by the manufacture, kinetic analyses of the antibodies were performed using antigens immobilized onto the sensor surface at a low density. […] The dissociation (kd or koff) and association (ka or kₒₙ) rates were determined using the software provided by the manufacturer (BIA evaluation 2.1).
Molecule,"IC50, inhibition of A431 cell proliferation in vitro [1]",Kd [2]
murine monoclonal antibody 528,0.66 nM,
B1,,0.076 nM
